Values quoted from earlier work, collected in publication PMC4376447.

Molecular target: S100A10 (Homo sapiens) (UniProt P60903)
Test: ITC

Sequence of UniProt P60903 (P60903 whole entry): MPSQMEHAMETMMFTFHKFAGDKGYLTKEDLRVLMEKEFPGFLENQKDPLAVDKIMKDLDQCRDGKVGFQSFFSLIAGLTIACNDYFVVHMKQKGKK

For “Annexin A2 N-terminus (from UniProt P07355)”, the Kd is given as 500 nM.
